The record followed here is article PMC3923129.

For the data set, the target named is sigmaA-RNAP holoenzyme (housekeeping RNA polymerase) (Bacillus subtilis) (UniProt P20429+P37870+P37871+P06224). The data set is described as follows: EMSA.
sigmaA-RNAP holoenzyme (housekeeping RNA polymerase) (Bacillus subtilis), sequence (P20429 whole entry, chain 1 of 4): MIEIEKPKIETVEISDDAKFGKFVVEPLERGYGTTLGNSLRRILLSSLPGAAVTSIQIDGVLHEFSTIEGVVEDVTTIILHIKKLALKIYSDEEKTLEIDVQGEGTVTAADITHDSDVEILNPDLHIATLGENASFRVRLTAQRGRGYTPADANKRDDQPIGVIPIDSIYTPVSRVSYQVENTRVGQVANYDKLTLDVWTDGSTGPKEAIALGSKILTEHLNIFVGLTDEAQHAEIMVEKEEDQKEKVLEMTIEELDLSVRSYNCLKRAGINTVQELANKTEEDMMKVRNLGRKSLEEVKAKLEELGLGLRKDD
sigmaA-RNAP holoenzyme (housekeeping RNA polymerase) (Bacillus subtilis), sequence (P37870 whole entry, chain 2 of 4): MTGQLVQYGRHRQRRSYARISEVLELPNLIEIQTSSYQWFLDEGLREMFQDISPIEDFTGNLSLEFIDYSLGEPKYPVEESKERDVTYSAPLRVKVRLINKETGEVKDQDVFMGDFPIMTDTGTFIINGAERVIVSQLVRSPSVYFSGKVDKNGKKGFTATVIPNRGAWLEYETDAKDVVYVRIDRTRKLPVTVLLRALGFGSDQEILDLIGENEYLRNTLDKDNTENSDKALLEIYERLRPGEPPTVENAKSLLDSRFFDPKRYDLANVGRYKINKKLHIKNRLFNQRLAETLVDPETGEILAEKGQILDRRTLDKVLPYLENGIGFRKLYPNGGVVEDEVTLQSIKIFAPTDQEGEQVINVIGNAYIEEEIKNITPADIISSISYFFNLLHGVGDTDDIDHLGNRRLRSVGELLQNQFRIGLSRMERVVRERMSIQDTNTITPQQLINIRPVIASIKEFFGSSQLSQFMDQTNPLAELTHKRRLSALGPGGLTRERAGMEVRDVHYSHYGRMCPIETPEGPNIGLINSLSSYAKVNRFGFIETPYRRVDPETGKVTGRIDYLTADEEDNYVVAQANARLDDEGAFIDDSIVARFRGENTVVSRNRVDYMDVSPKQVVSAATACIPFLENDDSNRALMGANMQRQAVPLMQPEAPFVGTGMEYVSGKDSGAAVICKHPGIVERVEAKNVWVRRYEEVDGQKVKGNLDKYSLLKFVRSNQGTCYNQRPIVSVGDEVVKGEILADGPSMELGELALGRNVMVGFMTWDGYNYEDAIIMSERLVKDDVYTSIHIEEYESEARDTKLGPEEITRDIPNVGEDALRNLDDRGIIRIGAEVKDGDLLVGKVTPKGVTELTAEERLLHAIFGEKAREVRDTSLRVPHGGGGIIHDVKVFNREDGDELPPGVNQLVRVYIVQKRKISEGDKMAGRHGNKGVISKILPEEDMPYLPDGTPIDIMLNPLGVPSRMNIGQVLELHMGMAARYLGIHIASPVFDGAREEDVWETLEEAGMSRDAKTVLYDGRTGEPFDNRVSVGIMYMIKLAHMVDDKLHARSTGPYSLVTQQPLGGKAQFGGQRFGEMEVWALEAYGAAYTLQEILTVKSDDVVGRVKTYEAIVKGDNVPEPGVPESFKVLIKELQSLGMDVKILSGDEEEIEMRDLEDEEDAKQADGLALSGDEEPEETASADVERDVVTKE
sigmaA-RNAP holoenzyme (housekeeping RNA polymerase) (Bacillus subtilis), sequence (P37871 whole entry, chain 3 of 4): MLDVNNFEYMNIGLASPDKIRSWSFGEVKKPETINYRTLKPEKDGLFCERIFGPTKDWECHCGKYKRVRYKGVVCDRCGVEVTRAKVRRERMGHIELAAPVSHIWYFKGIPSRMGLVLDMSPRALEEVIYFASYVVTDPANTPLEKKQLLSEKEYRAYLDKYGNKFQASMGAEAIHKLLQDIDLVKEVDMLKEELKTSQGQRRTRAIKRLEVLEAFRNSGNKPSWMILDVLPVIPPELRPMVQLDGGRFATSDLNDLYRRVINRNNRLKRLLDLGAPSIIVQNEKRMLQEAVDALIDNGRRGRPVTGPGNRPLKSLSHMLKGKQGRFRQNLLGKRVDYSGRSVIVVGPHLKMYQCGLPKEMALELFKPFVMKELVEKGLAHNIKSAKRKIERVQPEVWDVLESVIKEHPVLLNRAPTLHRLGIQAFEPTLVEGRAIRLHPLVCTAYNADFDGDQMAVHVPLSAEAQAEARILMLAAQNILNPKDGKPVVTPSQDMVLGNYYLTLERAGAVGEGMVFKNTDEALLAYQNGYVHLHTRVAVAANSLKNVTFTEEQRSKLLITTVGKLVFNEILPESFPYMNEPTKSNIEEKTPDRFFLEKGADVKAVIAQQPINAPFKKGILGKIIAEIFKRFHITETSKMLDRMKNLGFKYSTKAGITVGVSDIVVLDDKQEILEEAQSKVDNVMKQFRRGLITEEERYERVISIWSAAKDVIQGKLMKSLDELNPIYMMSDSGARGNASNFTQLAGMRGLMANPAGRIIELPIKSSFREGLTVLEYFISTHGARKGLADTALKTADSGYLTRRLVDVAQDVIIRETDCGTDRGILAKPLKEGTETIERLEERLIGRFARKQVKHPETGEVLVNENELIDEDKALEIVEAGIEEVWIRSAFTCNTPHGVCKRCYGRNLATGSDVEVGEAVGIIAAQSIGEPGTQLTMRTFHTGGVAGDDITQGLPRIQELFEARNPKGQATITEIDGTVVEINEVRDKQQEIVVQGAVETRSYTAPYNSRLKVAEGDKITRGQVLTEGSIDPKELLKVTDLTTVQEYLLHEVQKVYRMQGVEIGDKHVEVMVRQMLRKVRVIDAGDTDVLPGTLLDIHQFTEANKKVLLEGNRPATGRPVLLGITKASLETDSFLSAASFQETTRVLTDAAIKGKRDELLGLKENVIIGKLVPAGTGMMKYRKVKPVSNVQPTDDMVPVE
sigmaA-RNAP holoenzyme (housekeeping RNA polymerase) (Bacillus subtilis), sequence (P06224 whole entry, chain 4 of 4): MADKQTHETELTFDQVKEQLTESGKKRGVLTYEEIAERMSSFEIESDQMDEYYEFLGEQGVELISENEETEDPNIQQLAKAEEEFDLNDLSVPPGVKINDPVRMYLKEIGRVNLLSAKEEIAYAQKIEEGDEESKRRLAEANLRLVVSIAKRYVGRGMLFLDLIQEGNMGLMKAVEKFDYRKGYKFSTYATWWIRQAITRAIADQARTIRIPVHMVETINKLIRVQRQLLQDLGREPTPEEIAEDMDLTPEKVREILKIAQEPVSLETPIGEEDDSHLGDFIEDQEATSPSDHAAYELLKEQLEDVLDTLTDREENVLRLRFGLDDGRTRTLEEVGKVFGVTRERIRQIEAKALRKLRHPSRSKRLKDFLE

6S-1 RNA: the Kd (commonly the concentration at which binding is half-saturated) came out at 100 nM. That is a sub-micromolar value. Take 6S-2 RNA: the Kd came to 135 nM.
